{"source": "paper PMC6828947", "about": "“The Cotton GhWRKY91 Transcription Factor Mediates Leaf Senescence and Responses to Drought Stress in Transgenic Arabidopsis thaliana”", "binders": {"B1": {"name": "GhWRKY68 promoter W-box probe (dsDNA)", "DNA 1": "GCACTGTTCAATATCCGTACAAGTGGTTGACCTACAATTGCCCGTCGATCC", "DNA 2": "GGATCGACGGGCAATTGTAGGTCAACCACTTGTACGGATATTGAACAGTGC"}, "B2": {"name": "GhAPX1 promoter W-box probe (dsDNA)", "DNA 1": "TCCCCGACGTTCCGACAAGTTTTGACTATTTTATTTTCTTAAAATAAAAAGC", "DNA 2": "GCTTTTTATTTTAAGAAAATAAAATAGTCAAAACTTGTCGGAACGTCGGGGA"}, "B3": {"name": "GhWRKY17 promoter W-box probe (dsDNA)", "DNA 1": "AATTTCAAACGGCTAATCCCCACCTTTTGACCTTATCTCTTGTCAGTGACCCA", "DNA 2": "TGGGTCACTGACAAGAGATAAGGTCAAAAGGTGGGGATTAGCCGTTTGAAATT"}, "B4": {"name": "GhWRKY17 promoter W-box probe, unlabelled competitor (dsDNA)", "DNA 1": "B3 DNA 1", "DNA 2": "B3 DNA 2"}, "B5": {"name": "GhWRKY27a promoter W-box probe (dsDNA)", "DNA 1": "GCGACTTGGTCAGCAATTGGAGTTTTGACCTTACCTCACTCTTCAGTCCAC", "DNA 2": "GTGGACTGAAGAGTGAGGTAAGGTCAAAACTCCAATTGCTGACCAAGTCGC"}}, "key": {"GhWRKY91 [1]": {"target": "T1, GhWRKY91 (Gossypium hirsutum (CCRI10), UniProt A0A068LD65 1-273)", "T1 sequence (A0A068LD65 entry or part of it)": "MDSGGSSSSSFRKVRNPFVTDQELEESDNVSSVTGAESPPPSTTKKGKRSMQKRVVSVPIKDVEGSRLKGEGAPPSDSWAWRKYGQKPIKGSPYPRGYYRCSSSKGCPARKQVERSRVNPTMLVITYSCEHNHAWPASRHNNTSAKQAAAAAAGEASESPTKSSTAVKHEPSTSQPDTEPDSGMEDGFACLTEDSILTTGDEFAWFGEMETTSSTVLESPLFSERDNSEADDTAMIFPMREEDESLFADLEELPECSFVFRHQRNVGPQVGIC", "experiment": "EMSA; LightShift Chemiluminescent EMSA Kit (Thermo Scientific); buffer, salt, pH and temperature not stated", "details": "protein: recombinant; tags: N-terminal GST, removed by digestion after purification; label: biotin end label"}, "GhWRKY91 [2]": {"target": "T1, GhWRKY91", "experiment": "competition; excess unlabelled probe against labelled GhWRKY17 probe; LightShift Chemiluminescent EMSA Kit (Thermo Scientific); buffer, salt, pH and temperature not stated", "details": "protein: recombinant; tags: N-terminal GST, removed by digestion after purification"}}}
{"binder": "B1", "values": [{"measurement": "binding result", "setting": "GhWRKY91 [1]", "result": "no binding"}]}
{"binder": "B2", "values": [{"measurement": "binding result", "setting": "GhWRKY91 [1]", "result": "no binding"}]}
{"binder": "B3", "values": [{"measurement": "binding result", "setting": "GhWRKY91 [1]", "result": "binds"}]}
{"binder": "B4", "values": [{"measurement": "binding result", "setting": "GhWRKY91 [2]", "result": "binds"}]}
{"binder": "B5", "values": [{"measurement": "binding result", "setting": "GhWRKY91 [1]", "result": "no binding"}]}
